Target: ALG6 from Saccharomyces cerevisiae (tag-cleaved) (S. cerevisiae, UniProt Q12001)
Assay: SEC

Chain of ALG6 from Saccharomyces cerevisiae (tag-cleaved) (Q12001 whole entry): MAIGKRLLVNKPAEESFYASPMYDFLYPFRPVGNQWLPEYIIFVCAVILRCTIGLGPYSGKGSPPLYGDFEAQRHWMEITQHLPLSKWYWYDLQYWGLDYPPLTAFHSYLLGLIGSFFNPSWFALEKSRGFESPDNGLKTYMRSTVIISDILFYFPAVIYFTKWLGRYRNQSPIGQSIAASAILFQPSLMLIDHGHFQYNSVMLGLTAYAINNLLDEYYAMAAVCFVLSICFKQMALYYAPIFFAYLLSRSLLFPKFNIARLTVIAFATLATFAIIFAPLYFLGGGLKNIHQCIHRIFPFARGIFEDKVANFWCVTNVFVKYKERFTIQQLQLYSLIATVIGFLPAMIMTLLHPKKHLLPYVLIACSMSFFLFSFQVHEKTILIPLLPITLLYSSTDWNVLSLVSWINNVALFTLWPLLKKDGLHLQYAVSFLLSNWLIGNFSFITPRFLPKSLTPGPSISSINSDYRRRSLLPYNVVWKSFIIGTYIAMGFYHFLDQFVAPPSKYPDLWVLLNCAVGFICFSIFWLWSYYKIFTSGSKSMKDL

binding result: binds
B1: 6AG9-Fab (Fab, V domains shown)
VH: EVQLVESGGGLVQPGGSLRLSCAASGFNVYSSSIHWVRQAPGKGLEWVASISSYSGYTSYADSVKGRFTISADTSKNTAYLQMNSLRAEDTAVYYCAREYWSWYSYSYGIDYWGQGTLVTVSS
VL: DIQMTQSPSSLSASVGDRVTITCRASQSVSSAVAWYQQKPGKAPKLLIYSASSLYSGVPSRFSGSRSGTDFTLTISSLQPEDFATYYCQQSYWVGYPITFGQGTKVEIK
